Assay results reported in patent publication US7022488.

How the values were obtained:
Gs = assay: cell-based or functional assay
Gi proteins = assay: cell-based or functional assay

Substance	increase in cAMP levels after pertussis toxin treatment (Gs)	increase of the isoproterenol cAMP response after pertussis toxin treatment (Gi proteins)
human umami taste receptor hT1R1/hT1R3 (from UniProt Q7RTX1 21-841; Q7RTX0 21-852)	25%	–
β-adrenergic receptor (β2AR) (from UniProt P07550 1-413)	–	> 17 fold
